Measurements: patent US10640547B2, “Immunotherapy against melanoma and other cancers” (IMMATICS BIOTECHNOLOGIES GMBH, priority 2016, dated 2020)

Molecular target: HLA-A*02:01 (Homo sapiens, UniProt P04439, D140Y/D185E/D98H/E176V/E277Q/G131W/G231S/I119V/I121R/I166T/I218V/L300P/L318F/N151K/N90K/P208A/P217A/Q86G/Q94H/R138H/R169H/T345S)
Test: MHC binding assay (UV-ligand exchange, β2m ELISA)
Conditions: MHC class I binding score; binding to HLA-A*02:01 ranged by peptide exchange yield (UV-ligand exchange, β2m ELISA)
Excerpt: Candidate peptides for T cell based therapies according to the present invention were further tested for their MHC binding capacity (affinity). The individual peptide-MHC complexes were produced by UV-ligand exchange, where a UV-sensitive peptide is cleaved upon UV-irradiation, and exchanged with the peptide of interest as analyzed. Only peptide candidates that can effectively bind and stabilize the peptide-receptive MHC molecules prevent dissociation of the MHC complexes. To determine the yield of the exchange reaction, an ELISA was performed based on the detection of the light chain (β2m) of stabilized MHC complexes. The assay was performed as generally described in Rodenko et al. (Rodenko et al., 2006).
96 well MAXISorp plates (NUNC) were coated over night with 2 ug/ml streptavidin in PBS at room temperature, washed 4× and blocked for 1 h at 37° C. in 2% BSA containing blocking buffer. Refolded HLA-A*02:01/MLA-001 monomers served as standards, covering the range of 15-500 ng/ml. Peptide-MHC monomers of the UV-exchange reaction were diluted 100 fold in blocking buffer. Samples were incubated for 1 h at 37° C., washed four times, incubated with 2 ug/ml HRP conjugated anti-β2m for 1 h at 37° C., washed again and detected with TMB solution that is stopped with […]. Absorption was measured at 450 nm. Candidate peptides that show a high exchange yield (preferably higher than 50%, most preferred higher than 75%) are generally preferred for a generation and production of antibodies or fragments thereof, and/or T cell receptors or fragments thereof, as they show sufficient avidity to the MHC molecules and prevent dissociation of the MHC complexes.

Row | Peptide exchange | Substance
1 | +++ (>50 = +++) | 157 (HLFETISQA; listed as Homo sapiens) [compound 157]
2 | +++ (>50 = +++) | 158 (KLIPSIIVL; listed as Homo sapiens) [compound 158]
3 | ++++ (>75% = ++++) | 159 (TILATVPLV; listed as Homo sapiens) [compound 159]
4 | ++++ (>75% = ++++) | 160 (ALDDISESI; listed as Homo sapiens) [compound 160]
5 | ++++ (>75% = ++++) | 161 (GLCDSIITI; listed as Homo sapiens) [compound 161]
6 | +++ (>50 = +++) | 162 (TLDGNPFLV; listed as Homo sapiens) [compound 162]
7 | +++ (>50 = +++) | 163 (RLMANPEALKI; listed as Homo sapiens) [compound 163]
8 | ++ (>20% = ++) | 164 (ALFFQLVDV; listed as Homo sapiens) [compound 164]
9 | ++++ (>75% = ++++) | 165 (ALIEVLQPLI; listed as Homo sapiens) [compound 165]
10 | ++++ (>75% = ++++) | 166 (SIIPPLFTV; listed as Homo sapiens) [compound 166]
11 | ++++ (>75% = ++++) | 167 (KVLGDVIEV; listed as Homo sapiens) [compound 167]
12 | ++++ (>75% = ++++) | 168 (KLLAATLLL; listed as Homo sapiens) [compound 168]
13 | ++++ (>75% = ++++) | 169 (TLLESIQHV; listed as Homo sapiens) [compound 169]
14 | ++ (>20% = ++) | 170 (KLKEAVEAI; listed as Homo sapiens) [compound 170]
15 | ++++ (>75% = ++++) | 171 (KVSGVILSV; listed as Homo sapiens) [compound 171]
16 | ++++ (>75% = ++++) | 172 (FLPAGIVAV; listed as Homo sapiens) [compound 172]
17 | +++ (>50 = +++) | 173 (ALDDIIYRA; listed as Homo sapiens) [compound 173]
18 | +++ (>50 = +++) | 174 (TLLEGLTEL; listed as Homo sapiens) [compound 174]
19 | ++++ (>75% = ++++) | 175 (VLDSVDVRL; listed as Homo sapiens) [compound 175]
20 | ++++ (>75% = ++++) | 176 (TLYEQEIEV; listed as Homo sapiens) [compound 176]
21 | ++++ (>75% = ++++) | 177 (ILWDTLLRL; listed as Homo sapiens) [compound 177]
22 | ++++ (>75% = ++++) | 178 (FAYDGKDYIA; listed as Homo sapiens) [compound 178]
23 | +++ (>50 = +++) | 179 (ALDDTVLQV; listed as Homo sapiens) [compound 179]
24 | +++ (>50 = +++) | 180 (KLAEALYIA; listed as Homo sapiens) [compound 180]

Row | Peptide exchange | Substance
25 | ++++ (>75% = ++++) | 181 (GLIDLEANYL; listed as Homo sapiens) [compound 181]
26 | ++++ (>75% = ++++) | 182 (SVALVIHNV; listed as Homo sapiens) [compound 182]
27 | ++++ (>75% = ++++) | 183 (FLDSLIYGA; listed as Homo sapiens) [compound 183]
28 | ++++ (>75% = ++++) | 184 (VLFSSPPVILL; listed as Homo sapiens) [compound 184]
29 | ++++ (>75% = ++++) | 185 (ILADATAKM; listed as Homo sapiens) [compound 185]
30 | ++++ (>75% = ++++) | 186 (FLDHEMVFL; listed as Homo sapiens) [compound 186]
31 | +++ (>50 = +++) | 187 (SLPRPTPQA; listed as Homo sapiens) [compound 187]
32 | +++ (>50 = +++) | 188 (VVVDPIQSV; listed as Homo sapiens) [compound 188]
33 | +++ (>50 = +++) | 193 (ALDEPTTNL; listed as Homo sapiens) [compound 193]
34 | +++ (>50 = +++) | 194 (TLDDIMAAV; listed as Homo sapiens) [compound 194]
35 | + (>10% = +) | 195 (IAAGIFNDL; listed as Homo sapiens) [compound 195]
36 | +++ (>50 = +++) | 196 (ALEPIDITV; listed as Homo sapiens) [compound 196]
37 | ++++ (>75% = ++++) | 197 (ALDSGFNSV; listed as Homo sapiens) [compound 197]
38 | + (>10% = +) | 198 (EVVDKINQV; listed as Homo sapiens) [compound 198]
39 | ++ (>20% = ++) | 199 (AIHTAILTL; listed as Homo sapiens) [compound 199]
40 | +++ (>50 = +++) | 200 (LLEEINHFL; listed as Homo sapiens) [compound 200]
41 | +++ (>50 = +++) | 201 (SLIDRTIKM; listed as Homo sapiens) [compound 201]
42 | +++ (>50 = +++) | 202 (RVAFKINSV; listed as Homo sapiens) [compound 202]
43 | +++ (>50 = +++) | 203 (FLNEDISKL; listed as Homo sapiens) [compound 203]
44 | +++ (>50 = +++) | 204 (RMDEEFTKI; listed as Homo sapiens) [compound 204]
45 | ++++ (>75% = ++++) | 205 (SLKSKVLSV; listed as Homo sapiens) [compound 205]
46 | +++ (>50 = +++) | 206 (LLYEDIPDKV; listed as Homo sapiens) [compound 206]
47 | ++++ (>75% = ++++) | 207 (VQIGDIVTV; listed as Homo sapiens) [compound 207]
48 | ++ (>20% = ++) | 208 (YSDDIPHAL; listed as Homo sapiens) [compound 208]

Row | Peptide exchange | Substance
49 | +++ (>50 = +++) | 209 (SILDGLIHL; listed as Homo sapiens) [compound 209]
50 | +++ (>50 = +++) | 210 (LLPELRDWGV; listed as Homo sapiens) [compound 210]
51 | +++ (>50 = +++) | 212 (LLKDSIVQL; listed as Homo sapiens) [compound 212]
52 | +++ (>50 = +++) | 214 (VLMEMSYRL; listed as Homo sapiens) [compound 214]
53 | +++ (>50 = +++) | 215 (EVISKLYAV; listed as Homo sapiens) [compound 215]
54 | ++++ (>75% = ++++) | 216 (TLLHFLAEL; listed as Homo sapiens) [compound 216]
55 | +++ (>50 = +++) | 217 (NMMSGISSV; listed as Homo sapiens) [compound 217]
56 | +++ (>50 = +++) | 218 (STLHLVLRL; listed as Homo sapiens) [compound 218]
57 | +++ (>50 = +++) | 219 (FLDSEVSEL; listed as Homo sapiens) [compound 219]
58 | +++ (>50 = +++) | 220 (SAAEPTPAV; listed as Homo sapiens) [compound 220]
59 | +++ (>50 = +++) | 221 (SLLPTEQPRL; listed as Homo sapiens) [compound 221]
60 | ++++ (>75% = ++++) | 222 (LLSEIEEHL; listed as Homo sapiens) [compound 222]
61 | +++ (>50 = +++) | 223 (FLETNVPLL; listed as Homo sapiens) [compound 223]
62 | ++ (>20% = ++) | 224 (ILDEPTNHL; listed as Homo sapiens) [compound 224]
63 | ++++ (>75% = ++++) | 225 (VLFGAVITGA; listed as Homo sapiens) [compound 225]
64 | ++++ (>75% = ++++) | 226 (VLNEYFHNV; listed as Homo sapiens) [compound 226]
65 | ++++ (>75% = ++++) | 227 (FLLEQEKTQAL; listed as Homo sapiens) [compound 227]
66 | ++++ (>75% = ++++) | 228 (FLNLFNHTL; listed as Homo sapiens) [compound 228]
67 | ++++ (>75% = ++++) | 229 (LLEPFVHQV; listed as Homo sapiens) [compound 229]
68 | ++++ (>75% = ++++) | 230 (HLDEARTLL; listed as Homo sapiens) [compound 230]
69 | +++ (>50 = +++) | 231 (KMVGDVTGA; listed as Homo sapiens) [compound 231]
70 | ++++ (>75% = ++++) | 233 (QLYNQIIKL; listed as Homo sapiens) [compound 233]
71 | ++++ (>75% = ++++) | 234 (KVPEIEVTV; listed as Homo sapiens) [compound 234]
72 | ++++ (>75% = ++++) | 235 (ALADLQEAV; listed as Homo sapiens) [compound 235]
